# Measurements from the supplement of paper PMC9112550, “Optimization of the antimicrobial peptide Bac7 by deep mutational scanning” (BMC Biology, 2022).
# Test system: Escherichia coli TOP10
# Assay: shrunken log2 fold change of peptide-encoding DNA abundance (4.5 h post-induction vs induction); higher = less antimicrobial activity (less host growth inhibition)
# Conditions: time post-induction: 4.5 h; library: site-saturation at positions 5, 18, 19, 20
# 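Further: peptides expressed intracellularly from a pBAD plasmid library in pooled LB shake-flask culture, induced with 0.3% L-arabinose, DNA abundance read by NGS, three biological replicates, DESeq2 with apeglm shrinkage.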
row,Sequence,shrunken log2 fold change
1,RRIRSRPPRLPRPRPRPWAFPRP,-0.072
2,RRIRARPPRLPRPRPRPLMKPRP,0.106
3,RRIRARPPRLPRPRPRPTHNPRP,0.523
4,RRIRLRPPRLPRPRPRPWLWPRP,-0.106
5,RRIRDRPPRLPRPRPRPQEIPRP,-0.00905
6,RRIRARPPRLPRPRPRPMREPRP,0.844
7,RRIRQRPPRLPRPRPRPWAWPRP,-0.0707
8,RRIRSRPPRLPRPRPRPMIRPRP,0.0902
9,RRIRHRPPRLPRPRPRPGYLPRP,-0.243
10,RRIRWRPPRLPRPRPRPAYLPRP,-0.108
11,RRIRRRPPRLPRPRPRPAVCPRP,0.66
12,RRIRERPPRLPRPRPRPPSAPRP,0.632
13,RRIRLRPPRLPRPRPRPFWWPRP,0.483
14,RRIRLRPPRLPRPRPRPRRTPRP,0.354
15,RRIRDRPPRLPRPRPRPCIVPRP,-0.0549
16,RRIRWRPPRLPRPRPRPLNNPRP,-0.323
17,RRIRLRPPRLPRPRPRPYNSPRP,-0.514
18,RRIRGRPPRLPRPRPRPDPAPRP,1.06
19,RRIRPRPPRLPRPRPRPGHTPRP,0.179
20,RRIRHRPPRLPRPRPRPFTAPRP,-0.559
21,RRIRPRPPRLPRPRPRPLTYPRP,-0.0089
22,RRIRVRPPRLPRPRPRPKQHPRP,-0.301
23,RRIRNRPPRLPRPRPRPNKKPRP,-0.198
24,RRIRPRPPRLPRPRPRPKNFPRP,-0.262
25,RRIRDRPPRLPRPRPRPKDIPRP,-0.0599

row,Sequence,shrunken log2 fold change
1,RRIRSRPPRLPRPRPRPHHHPRP,-0.736
2,RRIRMRPPRLPRPRPRPTLYPRP,0.16
3,RRIRGRPPRLPRPRPRPQGAPRP,0.807
4,RRIRCRPPRLPRPRPRPSELPRP,-0.107
5,RRIRDRPPRLPRPRPRPLVCPRP,0.22
6,RRIRDRPPRLPRPRPRPGNAPRP,0.126
7,RRIRVRPPRLPRPRPRPGNSPRP,0.0126
8,RRIRCRPPRLPRPRPRPGLSPRP,-0.248
9,RRIRDRPPRLPRPRPRPQMAPRP,0.116
10,RRIRQRPPRLPRPRPRPTGEPRP,0.0647
11,RRIRIRPPRLPRPRPRPYVEPRP,-0.0566
12,RRIRTRPPRLPRPRPRPCKEPRP,-0.00136
13,RRIRLRPPRLPRPRPRPSNWPRP,-0.196
14,RRIRKRPPRLPRPRPRPVHLPRP,-0.0295
15,RRIRLRPPRLPRPRPRPNDHPRP,-0.43
16,RRIRRRPPRLPRPRPRPWDYPRP,0.0184
17,RRIRCRPPRLPRPRPRPGLVPRP,0.0569
18,RRIRHRPPRLPRPRPRPMINPRP,-0.305
19,RRIRQRPPRLPRPRPRPLVKPRP,-0.166
20,RRIRSRPPRLPRPRPRPVQIPRP,0.111
21,RRIRNRPPRLPRPRPRPYVSPRP,-0.0285
22,RRIRTRPPRLPRPRPRPRSHPRP,0.109
23,RRIRARPPRLPRPRPRPTPFPRP,0.609
24,RRIRMRPPRLPRPRPRPLDIPRP,-0.0561
25,RRIRYRPPRLPRPRPRPYFLPRP,-1.23

row,Sequence,shrunken log2 fold change
1,RRIRRRPPRLPRPRPRPLHIPRP,0.212
2,RRIRGRPPRLPRPRPRPLCDPRP,0.778
3,RRIRQRPPRLPRPRPRPFCPPRP,-0.236
4,RRIRMRPPRLPRPRPRPKGRPRP,-0.00141
5,RRIRRRPPRLPRPRPRPAEYPRP,0.0756
6,RRIRERPPRLPRPRPRPHVAPRP,0.0131
7,RRIRVRPPRLPRPRPRPGQFPRP,-0.156
8,RRIRTRPPRLPRPRPRPGWNPRP,-0.039
9,RRIRDRPPRLPRPRPRPVWMPRP,0.0445
10,RRIRKRPPRLPRPRPRPPKCPRP,0.069
11,RRIRERPPRLPRPRPRPNYIPRP,-0.672
12,RRIRTRPPRLPRPRPRPESLPRP,-0.00987
13,RRIRERPPRLPRPRPRPWAIPRP,-0.0826
14,RRIRLRPPRLPRPRPRPTKWPRP,-0.0762
15,RRIRWRPPRLPRPRPRPMFEPRP,-0.0796
16,RRIRTRPPRLPRPRPRPVFQPRP,-0.0322
17,RRIRWRPPRLPRPRPRPAQLPRP,1.63
18,RRIRFRPPRLPRPRPRPFVPPRP,-0.668
19,RRIRLRPPRLPRPRPRPTAMPRP,0.0595
20,RRIRHRPPRLPRPRPRPGGCPRP,0.165
21,RRIRHRPPRLPRPRPRPYEHPRP,-1.01
22,RRIRHRPPRLPRPRPRPQVLPRP,-0.0535
23,RRIRGRPPRLPRPRPRPFKRPRP,0.301
24,RRIRGRPPRLPRPRPRPGCWPRP,1.39
25,RRIRKRPPRLPRPRPRPWHYPRP,0.0725

row,Sequence,shrunken log2 fold change
1,RRIRDRPPRLPRPRPRPKKSPRP,0.102
2,RRIRHRPPRLPRPRPRPDIWPRP,-0.11
3,RRIRARPPRLPRPRPRPYGKPRP,-0.747
4,RRIRKRPPRLPRPRPRPIMFPRP,-0.21
5,RRIRFRPPRLPRPRPRPVHGPRP,0.284
6,RRIRLRPPRLPRPRPRPFTLPRP,-0.192
7,RRIRTRPPRLPRPRPRPIADPRP,-0.0123
8,RRIRLRPPRLPRPRPRPFWSPRP,-0.162
9,RRIRERPPRLPRPRPRPLFGPRP,-0.0794
10,RRIRTRPPRLPRPRPRPRTGPRP,0.312
11,RRIRVRPPRLPRPRPRPTWYPRP,-0.0971
12,RRIRPRPPRLPRPRPRPGEAPRP,0.426
13,RRIRVRPPRLPRPRPRPRCNPRP,-0.135
14,RRIRGRPPRLPRPRPRPSKMPRP,0.0491
15,RRIRDRPPRLPRPRPRPGWVPRP,0.223
16,RRIRPRPPRLPRPRPRPNHPPRP,-0.404
17,RRIRMRPPRLPRPRPRPWPDPRP,0.592
18,RRIRGRPPRLPRPRPRPYYTPRP,1.19
19,RRIRGRPPRLPRPRPRPSSSPRP,-0.296
20,RRIRGRPPRLPRPRPRPWWEPRP,0.0256
21,RRIRHRPPRLPRPRPRPNFVPRP,-0.0788
22,RRIRTRPPRLPRPRPRPLRWPRP,0.856
23,RRIRGRPPRLPRPRPRPKQKPRP,-0.0523
24,RRIRYRPPRLPRPRPRPVRPPRP,0.924
25,RRIRPRPPRLPRPRPRPWWDPRP,-0.204

row,Sequence,shrunken log2 fold change
1,RRIRSRPPRLPRPRPRPKAFPRP,-0.0206
2,RRIRVRPPRLPRPRPRPGYDPRP,-0.422
3,RRIRIRPPRLPRPRPRPVVWPRP,0.321
4,RRIRVRPPRLPRPRPRPTSVPRP,-0.0603
5,RRIRFRPPRLPRPRPRPFGQPRP,-0.288
6,RRIRPRPPRLPRPRPRPEWQPRP,0.137
7,RRIRRRPPRLPRPRPRPSQTPRP,0.294
8,RRIRVRPPRLPRPRPRPPRSPRP,0.37
9,RRIRQRPPRLPRPRPRPWQHPRP,-0.0358
10,RRIRQRPPRLPRPRPRPDTFPRP,-0.00762
11,RRIRHRPPRLPRPRPRPPEYPRP,0.0328
12,RRIRMRPPRLPRPRPRPEDYPRP,1.06
13,RRIRSRPPRLPRPRPRPEPYPRP,0.0691
14,RRIRPRPPRLPRPRPRPNYKPRP,-0.537
15,RRIRVRPPRLPRPRPRPKSWPRP,0.224
16,RRIRARPPRLPRPRPRPHWCPRP,0.0773
17,RRIRMRPPRLPRPRPRPASVPRP,1.67
18,RRIRLRPPRLPRPRPRPLCKPRP,-0.398
19,RRIRCRPPRLPRPRPRPGHLPRP,-0.0824
20,RRIRVRPPRLPRPRPRPIYCPRP,-0.113
21,RRIRERPPRLPRPRPRPRTPPRP,0.214
22,RRIRIRPPRLPRPRPRPATKPRP,-0.195
23,RRIRVRPPRLPRPRPRPLGKPRP,0.0149
24,RRIRFRPPRLPRPRPRPQPIPRP,0.222
25,RRIRARPPRLPRPRPRPRIWPRP,0.164

row,Sequence,shrunken log2 fold change
1,RRIRRRPPRLPRPRPRPVQHPRP,-0.0478
2,RRIRHRPPRLPRPRPRPMIVPRP,0.0837
3,RRIRPRPPRLPRPRPRPLKVPRP,-0.107
4,RRIRTRPPRLPRPRPRPMGIPRP,0.049
5,RRIRVRPPRLPRPRPRPFKWPRP,0.00238
6,RRIRMRPPRLPRPRPRPQCGPRP,0.096
7,RRIRQRPPRLPRPRPRPWNQPRP,-0.0236
8,RRIRARPPRLPRPRPRPMWHPRP,0.131
9,RRIRERPPRLPRPRPRPCNQPRP,-0.296
10,RRIRDRPPRLPRPRPRPVDCPRP,-0.0327
11,RRIRARPPRLPRPRPRPSHWPRP,-0.175
12,RRIRCRPPRLPRPRPRPHRKPRP,-0.0176
13,RRIRTRPPRLPRPRPRPFVEPRP,-0.284
14,RRIRCRPPRLPRPRPRPFYSPRP,-0.507
15,RRIRSRPPRLPRPRPRPSCWPRP,0.306
16,RRIRLRPPRLPRPRPRPHEAPRP,0.107
17,RRIRARPPRLPRPRPRPGHKPRP,-0.197
18,RRIRSRPPRLPRPRPRPWGIPRP,-0.118
19,RRIRWRPPRLPRPRPRPVPRPRP,0.549
20,RRIRTRPPRLPRPRPRPHIYPRP,-0.00363
21,RRIRVRPPRLPRPRPRPNVVPRP,-0.109
22,RRIRARPPRLPRPRPRPGDMPRP,0.374
23,RRIRHRPPRLPRPRPRPQGEPRP,-0.171
24,RRIRERPPRLPRPRPRPAANPRP,0.0774
25,RRIRVRPPRLPRPRPRPKCHPRP,-0.242
